Measured values reported in paper PMC2172855.

Target: microtubules of cultured mouse hippocampal neurons (mouse (endogenous in cultured hippocampal neurons)) (UniProt P68369)
Assay: immunostaining of cells or tissue

fluorescence ratio of rigor-KIF5::GFP to tubulin staining, in axons: 1.2
fluorescence ratio of rigor-KIF5::GFP to tubulin staining, in dendrites: 0.5
Substance: tailless KIF5B G234A::YFP (from UniProt Q61768 1-761) (domain or fragment)
